Test results as given in paper PMC11638888 (2024).

B1: mCherry-MYO10-SLC26A4-Ct (NanoSPD bait) [mouse] / μ2-MID-EGFP (NanoSPD prey) [mouse] (parent complex)
chain 1: RVQFPSWNGLGSVPSTDIYKSITHYKNLEEPEGVKILRFSSPIFYGNVDGFKKCINSTVGFDAIRVYNKRLKALRRIQKLIKKGQLRATKNGIISDIGSSNNAFEPDEDVEEPEELNIPTKEIEIQVDWNSELPVKVNVPKVPIHSLVLDCGAVSFLDVVGVRSLRMIVKEFQRIDVNVYFALLQDDVLEKMEQCGFFDDNIRKDRFFLTVHDAILHLQNQVKSREGQDSLLETVARIRDCKDPLDLMEAEMNAEELDVQDEAMRRLAS
chain 2: SETGALKTFITQQGIKSQHQTKEEQSQITSQVTGQIGWRREGIKYRRNELFLDVLESVNLLMSPQGQVLSAHVSGRVVMKSYLSGMPECKFGMNDKIVIEKQGKGTADETSKSGKQSIAIDDCTFHQCVRLSKFDSERSISFIPPDGEFELMRYRTTKDIILPFRVIPLVREVGRTKLEVKVVIKSNFKPSLLAQKIEVRIPTPLNTSGVQVICMKGKAKYKASENAIVWKIKRMAGMKESQISAEIELLPTNDKKKWARPPISMNFEVPFAPSGLKVRYLKVFEPKLNYSDHDVIKWVRYIGRSGIYETRC

Variants of: B1
Assay: NanoSPD assay; HeLa cells; mean of biological replicate means; parent: 2.7e+03; read off a plot

| Variant | response [A.U.] |
| --- | --- |
| chain 1 RVQFPSWNGLGSVPSTDIAKSITHAKNLEEPEGVKILRFSSPIFAGNVDGFKKCINSTVGFDAIRVYNKRLKALRRIQKLIKKGQLRATKNGIISDIGSSNNAFEPDEDVEEPEELNIPTKEIEIQVDWNSELPVKVNVPKVPIHSLVLDCGAVSFLDVVGVRSLRMIVKEFQRIDVNVAFALLQDDVLEKMEQCGFFDDNIRKDRFFLTVHDAILHLQNQVKSREGQDSLLETVARIRDCKDPLDLMEAEMNAEELDVQDEAMRRLAS [chain 1 Y19A, chain 1 Y25A, chain 1 Y45A, chain 1 Y180A] | ~210 |
| chain 1 RVQFPSWNGLGSVPSTDIYKSITHAKNLEEPEGVKILRFSSPIFYGNVDGFKKCINSTVGFDAIRVYNKRLKALRRIQKLIKKGQLRATKNGIISDIGSSNNAFEPDEDVEEPEELNIPTKEIEIQVDWNSELPVKVNVPKVPIHSLVLDCGAVSFLDVVGVRSLRMIVKEFQRIDVNVYFALLQDDVLEKMEQCGFFDDNIRKDRFFLTVHDAILHLQNQVKSREGQDSLLETVARIRDCKDPLDLMEAEMNAEELDVQDEAMRRLAS [chain 1 Y25A] | ~190 |
| chain 1 RVQFPSWNGLGSVPSTDIAKSITHYKNLEEPEGVKILRFSSPIFAGNVDGFKKCINSTVGFDAIRVYNKRLKALRRIQKLIKKGQLRATKNGIISDIGSSNNAFEPDEDVEEPEELNIPTKEIEIQVDWNSELPVKVNVPKVPIHSLVLDCGAVSFLDVVGVRSLRMIVKEFQRIDVNVAFALLQDDVLEKMEQCGFFDDNIRKDRFFLTVHDAILHLQNQVKSREGQDSLLETVARIRDCKDPLDLMEAEMNAEELDVQDEAMRRLAS [chain 1 Y19A, chain 1 Y45A, chain 1 Y180A] | ~530 |

Variants of: B1
Assay: NanoSPD assay; HeLa cells; mean of biological replicate means; parent: 1.3e+04; read off a plot

| Variant | response [A.U.] |
| --- | --- |
| chain 1 RVQFPSWNGLGSVPSTDIYKSITHYKNAEEPEGVKILRFSSPIFYGNVDGFKKCINSTVGFDAIRVYNKRLKALRRIQKLIKKGQLRATKNGIISDIGSSNNAFEPDEDVEEPEELNIPTKEIEIQVDWNSELPVKVNVPKVPIHSLVLDCGAVSFLDVVGVRSLRMIVKEFQRIDVNVYFALLQDDVLEKMEQCGFFDDNIRKDRFFLTVHDAILHLQNQVKSREGQDSLLETVARIRDCKDPLDLMEAEMNAEELDVQDEAMRRLAS [chain 1 L28A] | ~2000 |
